Test results taken from paper PMC2628611.

Molecular target: GST-DOC2b (wild type) (mouse) (UniProt P70169)
Test: pull-down

Sequence of UniProt P70169 (P70169 whole entry): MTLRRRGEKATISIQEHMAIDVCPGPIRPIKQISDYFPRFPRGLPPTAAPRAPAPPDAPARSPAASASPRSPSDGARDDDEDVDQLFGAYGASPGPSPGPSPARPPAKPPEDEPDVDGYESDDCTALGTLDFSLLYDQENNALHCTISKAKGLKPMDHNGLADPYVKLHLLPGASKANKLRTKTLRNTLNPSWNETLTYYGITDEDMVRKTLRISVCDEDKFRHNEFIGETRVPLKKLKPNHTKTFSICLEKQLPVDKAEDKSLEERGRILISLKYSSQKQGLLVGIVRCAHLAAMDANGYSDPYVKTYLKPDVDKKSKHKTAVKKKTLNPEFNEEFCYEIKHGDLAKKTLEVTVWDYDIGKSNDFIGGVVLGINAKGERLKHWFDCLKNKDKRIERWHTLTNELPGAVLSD

recombinant syntaxin-4 (cleaved from GST syntaxin-4) (from UniProt P70452 1-298) (natural protein)
percent of syntaxin-4 pulled down: 5%
